Source: US20210079084A1 (OPSIDIO, published 2021)
Where a chain is given by its changes, count along the chain named. One block for each binder: values may come before it.

Key:
[1] = target: T1, human stem cell factor isoform SCF248 (human, UniProt P21583 26-273); experiment: binding score, flow cytometry on S1/S14 hSCF248 cells
T1 construct: also called hSCF248; soluble SCF

[2] = target: T2, human stem cell factor isoform SCF220 (human, UniProt P21583-2 26-245); experiment: flow cytometry, directly labelled antibody on S1/S14 hSCF220 cells
T2 construct: whole, on cells; also called hSCF220; membrane SCF
T2 sequence (P21583 other isoform, or with tags, fused parts or gaps): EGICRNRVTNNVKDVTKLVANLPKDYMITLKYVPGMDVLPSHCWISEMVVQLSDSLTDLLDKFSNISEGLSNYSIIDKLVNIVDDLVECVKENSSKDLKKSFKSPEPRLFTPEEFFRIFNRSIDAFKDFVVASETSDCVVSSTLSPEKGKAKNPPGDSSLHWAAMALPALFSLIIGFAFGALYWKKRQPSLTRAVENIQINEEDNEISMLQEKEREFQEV
Experimental: Binding of the labeled antibody to the cells was assessed by flow cytometry.

[3] = target: T2, human stem cell factor isoform SCF220; experiment: flow cytometry on S1/S14 hSCF220 cells
[4] = target: T1, human stem cell factor isoform SCF248; experiment: flow cytometry on S1/S14 hSCF248 cells; printed as BC50 (50% maximal binding)
[5] = target: T2, human stem cell factor isoform SCF220; experiment: flow cytometry on the SCF220-expressing cell line

T1 sequence (P21583 26-273 limits assumed): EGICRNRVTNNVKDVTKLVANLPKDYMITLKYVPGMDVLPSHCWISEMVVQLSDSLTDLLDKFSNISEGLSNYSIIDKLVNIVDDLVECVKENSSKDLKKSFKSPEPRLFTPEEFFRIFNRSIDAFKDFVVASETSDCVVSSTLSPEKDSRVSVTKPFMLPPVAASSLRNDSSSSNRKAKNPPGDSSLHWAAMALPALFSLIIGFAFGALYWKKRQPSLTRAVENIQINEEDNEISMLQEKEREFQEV

binding result [1]: binds
B1: 5H10 VH2/VK2 (antibody, V domains shown)
VH: QVQLVQSGAEVKKPGSSVKISCKSSGYAFSSYWMNWVKQRPGQGLEWIGQIYPGDGDTHYNGKFKGKATLTADKSTSTAYMELSSLRSEDTAVYFCSSSNWVGSYWGQGTLVTVSS
VL: DVVMTQSPLSLPVTLGQPASISCKSSQSLLESDGKTYLNWLQQRPGQSPRRLIYLVSRLDSGVPDRFTGSGSGTDFTLKISRVEAEDVGVYYCWQGTHLPQTFGGGTKVEIK
notes: Humanized; Only variable regions are tied to the name

binding result [2]: no binding
B2: murine 5H10 antibody (antibody, V domains shown)
VH: B1 VH with V5Q, V11L, K12V, K13R, T76S, E82Q, S85R, R87T, T91S, S116A
VL: not shown
notes: Murine monoclonal from a hybridoma, kappa light chain; also called OpSCF; murine parent 5H10

binding result [3]: no binding
B3: 5H10 VH0/VK0 (chimeric 5H10) (antibody, V domains shown)
VH: B1 VH with V5Q, V11L, K12V, K13R, T76S, E82Q, S85R, R87T, T91S, S116A
VL: not shown
notes: also called chimeric antibody 5H10

binding result [3]: no binding
EC50 [4]: 0.9 µg/mL
B4: 5H10 VH3/VK3 (antibody, V domains shown)
VH: B1 VH with I20V, K38R
VL: B1 VL with T68S
notes: as for B1

binding result [1]: binds
B5: 5H10 VH1/VK2 (antibody, V domains shown)
VH: B1 VH with V11L, R87T, T91S
VL: B1 VL
notes: as for B1

binding result [3]: no binding
B6: 5H10 VH3/VK2 (antibody, V domains shown)
VH: B1 VH with I20V, K38R
VL: B1 VL
notes: as for B1

binding result [3]: no binding
B7: 5H10 VH5/VK3 (antibody, V domains shown)
VH: B1 VH with I20V, K38R, K65Q, K67R, A68V, L70I, F95Y
VL: B1 VL with T68S
notes: as for B1

binding result [5]: no binding
B8: 5H10 VH2/VK3 (antibody, V domains shown)
VH: B1 VH
VL: B1 VL with T68S
notes: as for B1

binding result [3]: no binding
B9: 5H10 VH4/VK2 (antibody, V domains shown)
VH: B1 VH with I20V, K38R, K67R, A68V, L70I
VL: B1 VL
notes: as for B1

binding result [3]: no binding
B10: 5H10 VH4/VK3 (antibody, V domains shown)
VH: B1 VH with I20V, K38R, K67R, A68V, L70I
VL: B1 VL with T68S
notes: as for B1

binding result [3]: no binding
B11: 5H10 VH5/VK2 (antibody, V domains shown)
VH: B1 VH with I20V, K38R, K65Q, K67R, A68V, L70I, F95Y
VL: B1 VL
notes: as for B1

binding result [1]: binds
B12: 5H10 VH1/VK1 (antibody, V domains shown)
VH: B1 VH with V11L, R87T, T91S
VL: B1 VL with S10T, P12S
notes: as for B1

binding result [5]: no binding
B13: 5H10 VH1/VK3 (antibody, V domains shown)
VH: B1 VH with V11L, R87T, T91S
VL: B1 VL with T68S
notes: as for B1
